In publication PMC7374715, “Conservation of Cdc14 phosphatase specificity in plant fungal pathogens: implications for antifungal development” (Scientific Reports, 2020):
Read-outs that look alike come from different tables or passages of the source.

Key:
[1] = substrate: O=[N+]([O-])c1ccc(OP(=O)(O)O)cc1; assay type: biochemical, Botrytis cinerea; conditions: other: pNPP, 25 mM HEPES pH 7.5, 30 °C, mean of 3 ± SD
Description: (§1) Activities towards varying concentrations of para-nitrophenyl phosphate (pNPP) were measured in 100 µL assay buffer (25 mM HEPES pH 7.5, 2 mM TCEP, 1 mM EDTA, and 150 mM NaCl) at 30 °C. Enzyme concentrations were chosen to achieve absorbance values within the linear response range while satisfying the steady-state assumption where substrate consumption was < 1%. Reactions were initiated by enzyme addition and stopped with 1 N NaOH. Absorbance at 405 nm was measured on a Synergy H1 microplate reader (BioTek) and converted to product concentration using a para-nitrophenol standard curve. Initial rates were plotted as a function of substrate concentration and fit with the Michealis-Menten equation in GraphPad Prism (Version 8) to determine kcat and KM.

[2] = substrate: Cc1cc(=O)oc2c(F)c(OP(=O)(O)O)c(F)cc12; test: purified protein, by the assay type; conditions: other: DiFMUP, 0.5 nM enzyme, pH 7.5, 30 °C, mean of 3 ± SD
Description: All enzyme concentrations were 0.5 nM, except for PsCdc14 and VHR, which were assayed at 2 and 5 nM, respectively. Fluorescence intensity was measured continuously on a Synergy H1 microplate reader (BioTek) with excitation and emission wavelengths set at 358 and 450 nm, respectively. Fluorescence intensity was converted to product concentration using a 6,8-difluoro-4-methylumbelliferone standard curve. Background fluorescence was subtracted from each reaction and initial rates were calculated from the slope of the linear portion of the product concentration versus time plots. kcat and KM were calculated as described above.

[3] = substrate: O=[N+]([O-])c1ccc(OP(=O)(O)O)cc1; assay type: biochemical, Saccharomyces cerevisiae; conditions: other: pNPP, 25 mM HEPES pH 7.5, 30 °C, mean of 3 ± SD
Description: as §1

Protein	Km [1] [mM]	kcat [1] [s⁻¹]	kcat/Km [1] [M⁻¹ s⁻¹]	Km [2] [mM]	kcat [2] [s⁻¹]	kcat/Km [2] [M⁻¹ s⁻¹]	Km [3] [mM]	kcat [3] [s⁻¹]	kcat/Km [3] [M⁻¹ s⁻¹]
BcCdc14 (Botrytis cinerea B05.10) (protein) MHPMDYNSMLEWATLLPNDAHPGASAKKGPKDPREEDRPFHWLTYTDRLYLASYTTPPSPDTLFPYPEQQSSRRSPTKRSARAADGPSVVSDKREPPHYFSVDDTLLYNAFHHDFGPLHIGHLYRFAVQFHDILGAPENKNKPVVFWSKADARSRANAACLLATYMVLIQSWAPHLALAPIAQADPPLMPFRDAGYSQADYGITVQDVVYGVWRAKEQGFCALPQFDLEEYERYERVDQGDFNWLTPDFLAFASPQHHPVQPILPSSPLYASLPTTLEDVDTHPTLPTPFKNVLKHFTSRNIGLVVRLNSELYSPSFFTALGIEHLDMIFDDGTCPPLSVVRKFITLAHEMITVQKRGIAVHCKAGLGRTGCLIGAYLIYRYGFTANEIIAYMRFMRPGMVVGPQQHWLHLNQGTFREWWIEEQFEIRMKEKLANMAPVTPRKGHYTSKSQVVTPPNGNQRTPLGEVDNERSHSIGAQEDYLPAPTPGQPRK	16 ± 2	0.38 ± 0.003	24 ± 2	0.034 ± 0.007	1 ± 0.2	43100 ± 11000			
ScCdc14 (Saccharomyces cerevisiae S288C) (protein, made in house; host or cells: E. coli BL21 AI) MRRSVYLDNTIEFLRGRVYLGAYDYTPEDTDELVFFTVEDAIFYNSFHLDFGPMNIGHLYRFAVIFHEILNDPENANKAVVFYSSASTRQRANAACMLCCYMILVQAWTPHQVLQPLAQVDPPFMPFRDAGYSNADFEITIQDVVYGVWRAKEKGLIDLHSFNLESYEKYEHVEFGDFNVLTPDFIAFASPQEDHPKGYLATKSSHLNQPFKSVLNFFANNNVQLVVRLNSHLYNKKHFEDIGIQHLDLIFEDGTCPDLSIVKNFVGAAETIIKRGGKIAVHCKAGLGRTGCLIGAHLIYTYGFTANECIGFLRFIRPGMVVGPQQHWLYLHQNDFREWKYTTRISLKPSEAIGGLYPLISLEEYRLQKKKLKDDKRVAQNNIEGELRDLTMTPPSNGHGALSARNSSQPSTANNGSNSFKSSAVPQTSPGQPRKGQNGSNTIEDIN				0.011 ± 0.003	3 ± 0.4	253000 ± 34000	23 ± 1	1.12 ± 0.08	50 ± 4
